Earlier results on 1 substance are cited in publication PMC7221782.

Where “and” joins values, the source holds several entries; their conditions need not be identical. Identical values can stand only once.

The data set concerns the target Gal4 (Saccharomyces cerevisiae) (UniProt P04386).

What is called Kd is the equilibrium constant for the complex coming apart. On to Gal4 (from UniProt P04386), for which the Kd was 8.5 µM and 20 µM.
